For 79 sequences, switch fluorescence ratio results are on record in the supplement of paper PMC10126150.

± gives the standard deviation of the averaged measurements.

This data set deals with ATP. The data set is described as follows: switch fluorescence ratio, 500 uM ATP over buffer (Cy3 cluster intensity, sum of 5 cycles each) (fold (ratio)); higher = stronger signal-on switching upon ATP binding; sequences stand for … in TCGTCGGCAGCGTCAGATGTGTATAAGAGACAGTTTTTTTTTTTTTTTTTTTTTTTTT…TC. The note with it: aptamer strand: ATP DNA aptamer (quencher-CACCTGGGGGAGTATTGCGGAGGAAGG + anchor), 100 nM annealed; ATP concentration: 500 uM. In outline: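 Values give the fluorescence ratio for each switch-domain sequence, averaged from per-cluster ratios of summed target-cycle to summed buffer-cycle Cy3 intensity. The Cy3-labelled switching-strand clusters sat on a modified Illumina MiSeq flow-cell, were annealed to 100 nM quencher-labelled ATP aptamer, and were imaged in selection buffer, then after 15 min with 500 uM ATP at 22 °C. Five cycles ran with NaOH stripping and re-annealing between them, and clusters outside 100-1000 RFU were excluded.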
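Further: ATP exposure 15 min at 22 °C before imaging.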

Regarding TCTCAAAAAT, the switch fluorescence ratio amounted to 1.1 ± 0.025. For ATTTCTAGAA the value was 1.02 ± 0.015. As to CAGTTATGAC, the switch fluorescence ratio turned out to be 0.987 ± 0.011. For the sequence TAGTGCGGTA, the switch fluorescence ratio was found to be 1.036 ± 0.0022. The same measure for TGGGGCGTCG: 1 ± 0.037. Consider GTAAGTTTTT, for which the switch fluorescence ratio came out at 0.984 ± 0.02. For TTTTTTAGGC the value was 0.962 ± 0.041; for TTATTTAGAC, 1 ± 0.024. For GTTAGTATAA the value was 0.9894 ± 0.0074; for TGCAGTGATC, 1.11 ± 0.056; for CGTACTTGGG, 0.982 ± 0.011. As for AGCTATTCCG, the switch fluorescence ratio worked out at 1.01 ± 0.013. For GATTTACGTG the value was 1.02 ± 0.012. For TTTTGGGGTA the value was 0.993 ± 0.036; for TGGGGTGACA, 1.01 ± 0.054; for AATGGTCTCG, 0.9842 ± 0.006. The same measure for GATGACAGGT: 1.03 ± 0.041; for CGTCCTATTT: 1.01 ± 0.029. As to CTTAGTTTCG, the switch fluorescence ratio was 1.035 ± 0.0071. For the sequence GTTCTATGGT, the switch fluorescence ratio was found to be 0.998 ± 0.022. The same measure for CGTGTGAGGG: 1.01 ± 0.015. The same measure for ATTGCGAGGC: 1.04 ± 0.029. The same measure for TGGTTCATCG: 0.97771 ± 0.00071; for TTCCATGAGT: 0.963 ± 0.019; for AGAACTAGGG: 0.974 ± 0.016.

In the case of CGCGTTGTGC, the switch fluorescence ratio stood at 1.11 ± 0.021. For ACGGGGGGAT the value was 1.04 ± 0.089; for CCATAGCAGG, 3.97 ± 0.9; for TATGACATGG, 0.959 ± 0.011. For GTGGTTGGAG the value was 0.9865 ± 0.0072.

In the case of GGGTTTGGGG, the switch fluorescence ratio was 0.988 ± 0.022.

In the case of TTATACAGGA, the switch fluorescence ratio was 1.019 ± 0.0057.

Turning to CTTAGGTGAC, the switch fluorescence ratio was 1.034 ± 0.004. As for AATGGCGGCA, the switch fluorescence ratio was found to be 1.06 ± 0.078. For GTATGGGGGA the value was 1.01 ± 0.031; for CCTAGAGGGT, 1.07 ± 0.024. Regarding AAATACGTCT, the switch fluorescence ratio was found to be 1.09 ± 0.096. As to CCAGGTTGTT, the switch fluorescence ratio was found to be 1.551 ± 0.0043. With CTTGACATA, the switch fluorescence ratio is 1.03 ± 0.011. The same measure for GGGGGCCAGG: 1.02 ± 0.073; for CAGTGGGGCT: 1.016 ± 0.0057. For AGACAGTTGG the value was 0.99 ± 0.025.

Turning to GAGCTCGTGG, the switch fluorescence ratio turned out to be 1.03 ± 0.051. In the case of AATTAGTGTG, the switch fluorescence ratio is 0.987 ± 0.022.

Take AATTTTTCGC: the switch fluorescence ratio worked out at 0.98 ± 0.024. For TAGGGATTTG the value was 1.01 ± 0.014; for AGTCTGAGCG, 1.03 ± 0.024. Take TAATGATTGT: the switch fluorescence ratio was 0.982 ± 0.042. The same measure for ATAGCATGTT: 1 ± 0.038; for TCCTGATTGT: 0.988 ± 0.022. For GCTTTTGGCG the value was 1.02 ± 0.021.

As for CATGTCAGGA, the switch fluorescence ratio came out at 1.02 ± 0.018. For TTATACGGCT, the switch fluorescence ratio was found to be 1.11 ± 0.092. For AGTAACAGCC the value was 1.001 ± 0.0066; for GGGGCTTTTT, 1 ± 0.036; for TTTTCGGTGG, 1.05 ± 0.019.

For GCTTGAAGGG, the switch fluorescence ratio came out at 1.01 ± 0.027. On to GGTCTTTTTT, for which the switch fluorescence ratio came out at 1.02 ± 0.05. The same measure for AGAGGTTGGG: 0.98 ± 0.04. The same measure for AAAGAGGGGA: 1.03 ± 0.016; for TTCGTGGGTG: 1.03 ± 0.075; for GGGTGCGGCG: 0.968 ± 0.035.

On to TGATTCTAAT, for which the switch fluorescence ratio stood at 1 ± 0.042. For CTTACGCAGC the value was 1.59 ± 0.016. The same measure for CTCGGGGTCG: 0.994 ± 0.047; for TTTTAAAAGA: 0.995 ± 0.027. For AATGCATGGG the value was 0.989 ± 0.046; for AAAAGACGTT, 1 ± 0.029; for AAACTTCGCT, 1.27 ± 0.25. As for GGTGTCTGCG, the switch fluorescence ratio was 1.01 ± 0.013. For AATCTGAAGA the value was 0.9983 ± 0.0097; for GACGGAAGCA, 1.38 ± 0.11; for TATCGAATCC, 0.99 ± 0.025. The same measure for GAGGTCTGTG: 0.965 ± 0.018; for ATAGTGTTGA: 1.03 ± 0.011. Consider GTTGGTCGTG, for which the switch fluorescence ratio stood at 1 ± 0.038. The same measure for GAATAAGCAA: 1.56 ± 0.025. For AAGCTTGCCT the value was 0.9871 ± 0.0013; for AGTTGAGGGG, 0.985 ± 0.034.
